According to US20230135471A1, “UBIQUITIN VARIANTS WITH IMPROVED AFFINITY FOR 53BP1” (Integrated DNA Technologies, Inc., priority 2021, published 2023):

Biological target: 53BP1 fragment (a.a. 1221-1718) fused to an adenylate cyclase fragment (two-hybrid) (UniProt Q12888)
Assay: cell-based or functional assay

Substance	Experiment 1 Average Enrichment	Experiment 1 Rep 1 Enrichment	Experiment 1 Rep 2 Enrichment	Experiment 2 Average Enrichment	Experiment 2 Rep 1 Enrichment	Experiment 2 Rep 2 Enrichment
i53 + Q41Y two-hybrid fusion (designed binder)	0.68 log2	0.73 log2	0.64 log2	0.47 log2	0.4 log2	0.53 log2
i53 + R42C two-hybrid fusion (designed binder)	0.42 log2	0.37 log2	0.47 log2	0.28 log2	0.54 log2	0.01 log2
i53 + R42F two-hybrid fusion (designed binder)	1.88 log2	1.99 log2	1.77 log2	1.26 log2	1.4 log2	1.13 log2
i53 + R42H two-hybrid fusion (designed binder)	2.04 log2	2.18 log2	1.89 log2	1.03 log2	0.89 log2	1.16 log2
i53 + R42N two-hybrid fusion (designed binder)	1.12 log2	1.18 log2	1.05 log2	1.01 log2	1.34 log2	0.68 log2
i53 + R42S two-hybrid fusion (designed binder)	-0.08 log2	-0.13 log2	-0.02 log2	0.23 log2	0.05 log2	0.41 log2
i53 + R42Y two-hybrid fusion (designed binder)	1.57 log2	1.44 log2	1.69 log2	1.19 log2	1.13 log2	1.26 log2
i53 + R54C two-hybrid fusion (designed binder)	0.06 log2	0.24 log2	-0.12 log2	-0.07 log2	-0.43 log2	0.29 log2
i53 + R54F two-hybrid fusion (designed binder)	0.76 log2	1.01 log2	0.52 log2	0.55 log2	0.66 log2	0.43 log2
i53 + R54H two-hybrid fusion (designed binder)	0.87 log2	0.78 log2	0.96 log2	0.49 log2	0.43 log2	0.55 log2
i53 + R54K two-hybrid fusion (designed binder)	0.3 log2	0.07 log2	0.54 log2	-0.22 log2	-0.16 log2	-0.29 log2
i53 + R54M two-hybrid fusion (designed binder)	0.85 log2	0.82 log2	0.89 log2	0.56 log2	0.56 log2	0.55 log2
i53 + R54N two-hybrid fusion (designed binder)	0.19 log2	-0.26 log2	0.65 log2	0.01 log2	0.03 log2	-0.01 log2
i53 + R54Q two-hybrid fusion (designed binder)	0.14 log2	-0.05 log2	0.32 log2	-0.02 log2	-0.04 log2	0 log2
i53 + R54T two-hybrid fusion (designed binder)	0.66 log2	0.62 log2	0.71 log2	0.7 log2	0.76 log2	0.64 log2
i53 + R74C two-hybrid fusion (designed binder)	0.81 log2	0.64 log2	0.99 log2	0.65 log2	0.68 log2	0.63 log2
i53 + R74E two-hybrid fusion (designed binder)	0.38 log2	0.53 log2	0.23 log2	-0.1 log2	0.14 log2	-0.35 log2
i53 + R74I two-hybrid fusion (designed binder)	0.83 log2	0.84 log2	0.83 log2	0.61 log2	0.63 log2	0.58 log2
